A short description of assay [1]: Kinetics of evolved and parental enzymes, 2-methylpyrroline as variable substrate. Format: biochemical. Conditions: reductase activity towards 2-methylpyrroline.
Assay [2] relates to LS1 strain (ΔadhE ΔldhA double mutant) cells. The assay is described as follows: Metabolic complementation (anaerobic growth recovery) of LS1/AL strain. Format: cell-based, Escherichia coli. The note with it: media supplemented with 2-methylpyrroline. Here is the method: The LS1 mutant strain and the parental BW25113 strain were transformed with the desired plasmid and overnight pre-cultures were grown aerobically in 15 mL Falcon tubes with M9 media (0.4% glucose). These pre-cultures were used to inoculate 10 mL Hungate tubes with M9 medium (0.4% glucose) supplemented with 100 μg/mL ampicillin, 1 mM IPTG and with or without the specific substrate of the dehydrogenase under anaerobic conditions at 37° C. Metabolic complementation was assessed by measuring the optical density at 600 nm every two hours during daytime.

The subject of assay [3] is AL cells. The experiment in a line: 1H NMR analysis of fermentation broth of anaerobic cultures. The class given is cell-based, Escherichia coli. On the set-up: Substrate concentration: unit not given here. The note with it: exogenous substrate 2-methyl-1-pyrroline.

B1: MsIRED-s: MsIRED variant with N32E, R33V, T34R and K37R, NADH-dependent (protein)
chain: MKPTLTVIGAGRMGSALIKAFLQSGYTTTVWEVRKARSEPLAKLGAHLADTVRDAVKRSDIIVVNVLDYDTSDQLLRQDEVTRELRGKLLVQLTSGSPALAREQETWARQHGIDYLDGAIMATPDFIGQAECALLYSGSAALFEKHRAVLNVLGGATSHVGEDVGHASALDSALLFQMWGTLFGTLQALAISRAEGIPLEKTTAFIKLTEPVTQGAVADVLTRVQQNRLTADAQTLASLEAHNVAFQHLLALCEERNIHRGVADAMYSVIREAVKAGHGKDDFAILTRFLK
modifications: variant of Myxococcus stipitatus imine reductase
notes: MsIRED variant with N32E, R33V, T34R and K37R, NADH-dependent
As to B1, the “activity with NADPH” value in assay [1] was “no activity was detected”. Also, the “anaerobic growth compared with best variant of previous studies” value in assay [2] is “more efficiently”. In assay [3], this molecule displayed an Acetate concentration of 15.9, an Ethanol concentration of 0, a Formate concentration of 12.8 and a Lactate concentration of 0. In assay [3], this molecule returned a Substrate concentration of 0.8 and a Succinate concentration of 2. Further, the Product concentration in assay [3] (product 2-methylpyrrolidine) is on record as 13.4.
